# Literature values as cited in publication PMC4937678, “In Vivo Measurement and Characterization of a Novel Formulation of [^177Lu]-DOTA-Octreotate” (Asia Oceania Journal of Nuclear Medicine and Biology, 2016).
# Read-outs that look alike come from different tables or passages of the source.
# Description: Table 4 Comparison of Published Radiation Dose Estimates for Different Formulations of [^177Lu]-DOTA-Octreotate ([3], [7]-[11]) | column: Dose (mGy/MBq)
# [1] = 6 subjects, ref Kwekkeboom (2001) [3]
# [2] = 10 subjects, value (range), ref Cremonesi (2006) [10]
# [3] = 24 subjects, range, ref Sandstrom (2010) [8]
smiles,measurement,setting,value
C[C@@H](O)[C@H](NC(=O)[C@@H]1CSSC[C@H](NC(=O)[C@@H](Cc2ccccc2)NC(=O)CN2CCN(CC(=O)[O-])CCN(CC(=O)[O-])CCN(CC(=O)[O-])CC2)C(=O)N[C@@H](Cc2ccc(O)cc2)C(=O)N[C@H](Cc2c[nH]c3ccccc23)C(=O)N[C@@H](CCCCN)C(=O)N[C@@H]([C@@H](C)O)C(=O)N1)C(=O)O.[177Lu+3] [[^177Lu]-DOTA-Octreotate],"Dose, Liver",[1],0.21 ± 0.08 mGy/MBq
same,"Dose, Red Marrow",[1],0.07 ± 0.01 mGy/MBq
same,"Dose, Spleen",[1],2.15 ± 0.39 mGy/MBq
same,"Dose, Liver",[2],0.18 (0.05 – 0.34) mGy/MBq
same,"Dose, Red Marrow",[2],0.04 (0.02 – 0.06) mGy/MBq
same,"Dose, Spleen",[2],0.64 (0.29-2.91) mGy/MBq
same,"Dose, Red Marrow","14 subjects, ref Forrer (2009) [9]",0.02 ± 0.03 mGy/MBq
same,"Dose, Kidney (range)",[3],(0.32 – 1.67) mGy/MBq
same,"Dose, Liver (range)",[3],(0.13 – 1.10) mGy/MBq
same,"Dose, Spleen (range)",[3],0.21 – 1.86 mGy/MBq
same,"Dose, Red Marrow","27 subjects, ref Wehrmann (2007) [11]",0.04 ± 0.02 mGy/MBq
same,"Dose, Spleen","73 subjects, ref Wehrmann (2007) [11]",1.2 ± 0.5 mGy/MBq
same,"Dose, Kidney","89 subjects, ref Wehrmann (2007) [11]",0.9 ± 0.3 mGy/MBq
same,"Dose, Kidney","no renal protection, 6 subjects, ref Kwekkeboom (2001) [3]",1.65 mGy/MBq
same,"Dose, Kidney","with renal protection, 5 subjects, ref Kwekkeboom (2001) [3]",0.88 mGy/MBq
